Source: patent US20120301878A1 (Memorial Sloan Kettering, published 2012)

Molecular target: T1, FLAG-tagged p61 BRAF(V600E/R509H) (Homo sapiens, UniProt P15056 1-168; P15056 381-766)
T1 construct: domain: exons 1-3;domain: exons 9-18; Expressed in 293H cells; also called dimerization-deficient mutant; not shown: FLAG tag
Test: co-immunoprecipitation of Flag- and V5-tagged forms from 293H cell lysate (FIG. 2C)
Procedure: FIG. 2C. To compare levels of dimerization, 293H cells co-expressing FLAG tagged and c-terminal V5-tagged p61BRAF(V600E), full length BRAF(V600E) and the corresponding dimerization-deficient mutants p61 BRAF(V600E/R509H) and BRAF(V600E/R509H) were lysed followed by immunoprecipitation with FLAG antibody. Western blots with V5 or FLAG antibodies were performed as indicated.
The inventors of the present invention then determined whether deletion of exons 4-8 promoted dimerization of p61 BRAF(V600E). To determine levels of dimerization, the inventors ectopically co-expressed two constructs encoding the same protein; either p61 BRAF(V600E) or full-length BRAF(V600E) with different tags (Flag or V5).

- binding result: no binding
B1: V5-tagged p61 BRAF(V600E/R509H) (enzyme, Homo sapiens, UniProt P15056 1-168, looked up)
chain: MAALSGGGGGGAEPGQALFNGDMEPEAGAGAGAAASSAADPAIPEEVWNIKQMIKLTQEHIEALLDKFGGEHNPPSIYLEAYEEYTSKLDALQQREQQLLESLGNGTDFSVSSSASMDTVTSSSSSSLSVLPSSLSVFQNPTDVARSNPKSPQKPIVRVFLPNKQRTVDLIRDQGFRGDGGSTTGLSATPPASLPGSLTNVKALQKSPGPQRERKSSSSSEDRNRMKTLGRRDSSDDWEIPDGQITVGQRIGSGSFGTVYKGKWHGDVAVKMLNVTAPTPQQLQAFKNEVGVLRKTHHVNILLFMGYSTKPQLAIVTQWCEGSSLYHHLHIIETKFEMIKLIDIARQTAQGMDYLHAKSIIHRDLKSNNIFLHEDLTVKIGDFGLATEKSRWSGSHQFEQLSGSILWMAPEVIRMQDKNPYSFQSDVYAFGIVLYELMTGQLPYSNINNRDQIIFMVGRGYLSPDLSKVRSNCPKAMKRLMAECLKKKRDERPLFPQILASIELLARSLPKIHRSASEPSLNRAGFQTEDFSLYACASPKTPIQAGGYGAFPVH
notes: domain: exons 1-3;domain: exons 9-18; Expressed in 293H cells; also called dimerization-deficient mutant; not shown: V5 tag at the C-terminus
